# Assay results published in patent publication US20140179604A1 (U S A REPRESENTED BY THE DEPARTMENT OF VETERANS AFFAIRS, published 2014).
# Non-standard residues stand in square brackets, D forms with d. No end group written: not given here. *: point of attachment. Phe(F5) = N[C@@H](Cc1c(F)c(F)c(F)c(F)c1F)C(=O)O; Desaminotyrosyl = O=C(CCc1ccc(O)cc1)*; NMeY = CN[C@@H](Cc1ccc(O)cc1)C(=O)O; Agmatine = N=C(N)NCCCCN*; NMeA = CN[C@@H](C)C(=O)O; Nle = CCCC[C@H](N)C(=O)O; Orn = NCCC[C@H](N)C(=O)O; Abu = CC[C@H](N)C(=O)O; Aoc = NCCCCCCCC(=O)O; Ava = NCCCCC(=O)O; GABA = NCCCC(=O)O
# What was measured:
# [1] = target: T1, GHRH receptor (membrane receptors of human anterior pituitary cells) (human, UniProt Q02643 23-423); assay: competition with 125I-JV-1-42, human pituitary membranes
# T1 construct: whole, on cells; Native receptor in a membrane fraction of purchased normal human pituitaries, not intact cells; also called hGHRH receptor; human pituitary membrane homogenates
# T1 sequence (looked up): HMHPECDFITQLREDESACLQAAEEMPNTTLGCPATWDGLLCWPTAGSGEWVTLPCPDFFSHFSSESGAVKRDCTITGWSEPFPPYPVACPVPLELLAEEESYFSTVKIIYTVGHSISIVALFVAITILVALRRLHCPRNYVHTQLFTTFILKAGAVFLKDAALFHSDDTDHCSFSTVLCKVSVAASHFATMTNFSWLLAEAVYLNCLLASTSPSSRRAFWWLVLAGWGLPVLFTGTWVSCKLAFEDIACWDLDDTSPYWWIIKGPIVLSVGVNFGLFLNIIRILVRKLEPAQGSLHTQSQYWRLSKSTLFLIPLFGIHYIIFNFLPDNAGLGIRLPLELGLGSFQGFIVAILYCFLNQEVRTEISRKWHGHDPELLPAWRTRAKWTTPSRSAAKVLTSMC
# Text: Normal human pituitaries were purchased from the National Hormone and Peptide Program (A. F. Parlow, Los Angeles, County Harbor-UCLA Medical Center, Torrance, Calif.).
# [2] = target: T1, GHRH receptor (membrane receptors of …); assay: competition with 125I-[His1,Nle27]hGHRH(1-32)NH2, human pituitary membranes
Binder,IC50 [1],Relative affinity (Binding potency) vs JI-38 [1],IC50 [2],Relative affinity (Binding potency) compared to JI-38 [2],Relative affinity (Binding potency) compared to hGHRH(1-29) [2]
"[Desaminotyrosyl][dA]DAIFTNSYR[Orn]VL[Abu]QLSAR[Orn]LLQDI[Nle]DR[Aoc]-NH2 (SMILES CCCC[C@H](NC(=O)[C@@H](NC(=O)[C@H](CC(=O)O)NC(=O)[C@H](CCC(N)=O)NC(=O)[C@H](CC(C)C)NC(=O)[C@H](CC(C)C)NC(=O)[C@H](CCCN)NC(=O)[C@H](CCCNC(=N)N)NC(=O)[C@H](C)NC(=O)[C@H](CO)NC(=O)[C@H](CC(C)C)NC(=O)[C@H](CCC(N)=O)NC(=O)[C@H](CC)NC(=O)[C@H](CC(C)C)NC(=O)[C@@H](NC(=O)[C@H](CCCN)NC(=O)[C@H](CCCNC(=N)N)NC(=O)[C@H](Cc1ccc(O)cc1)NC(=O)[C@H](CO)NC(=O)[C@H](CC(N)=O)NC(=O)[C@@H](NC(=O)[C@H](Cc1ccccc1)NC(=O)[C@@H](NC(=O)[C@H](C)NC(=O)[C@H](CC(=O)O)NC(=O)[C@@H](C)NC(=O)CCc1ccc(O)cc1)[C@@H](C)CC)[C@@H](C)O)C(C)C)[C@@H](C)CC)C(=O)N[C@@H](CC(=O)O)C(=O)N[C@@H](CCCNC(=N)N)C(=O)NCCCCCCCC(N)=O, also called Peptide 21300) [P-21300 [Dat^1, D-Ala^2, Orn^12, Abu^15, Orn^21, Nle^27, Asp^28, Amc^30]hGHRH(1-30)NH2]",3.61 nM,1.2 JI-38 = 1,,,
"[Desaminotyrosyl][dA]DAIFT[NMeA]SYR[Orn]VL[Abu]QLSAR[Orn]LLQDI[Nle]D[Agmatine] (SMILES CCCC[C@H](NC(=O)[C@@H](NC(=O)[C@H](CC(=O)O)NC(=O)[C@H](CCC(N)=O)NC(=O)[C@H](CC(C)C)NC(=O)[C@H](CC(C)C)NC(=O)[C@H](CCCN)NC(=O)[C@H](CCCNC(=N)N)NC(=O)[C@H](C)NC(=O)[C@H](CO)NC(=O)[C@H](CC(C)C)NC(=O)[C@H](CCC(N)=O)NC(=O)[C@H](CC)NC(=O)[C@H](CC(C)C)NC(=O)[C@@H](NC(=O)[C@H](CCCN)NC(=O)[C@H](CCCNC(=N)N)NC(=O)[C@H](Cc1ccc(O)cc1)NC(=O)[C@H](CO)NC(=O)[C@H](C)N(C)C(=O)[C@@H](NC(=O)[C@H](Cc1ccccc1)NC(=O)[C@@H](NC(=O)[C@H](C)NC(=O)[C@H](CC(=O)O)NC(=O)[C@@H](C)NC(=O)CCc1ccc(O)cc1)[C@@H](C)CC)[C@@H](C)O)C(C)C)[C@@H](C)CC)C(=O)N[C@@H](CC(=O)O)C(=O)NCCCCNC(=N)N, also called Peptide 20357) [P-20357 [Dat^1, D-Ala^2, N-Me-Ala^8, Orn^12, Abu^15, Orn^21, Nle^27, Asp^28, Agm^29]hGHRH(1-29)NH2]",0.86 nM,5.06 JI-38 = 1,,,
"[NMeY][dA]DAI[Phe(F5)]TNSYR[Orn]VL[Abu]QLSAR[Orn]LLQDI[Nle]D[Agmatine] (also called Peptide 20359) [P-20359 [N-Me-Tyr^1, D-Ala^2, Fpa5^6, Orn^12, Abu^15, Orn^21, Nle^27, Asp^28, Agm^29]hGHRH(1-29)NH2]",3.05 nM,1.43 JI-38 = 1,,,
"[NMeY][dA]DAIFTNSYR[Orn]VL[Abu]QLSAR[Orn]LLQDI[Nle]D[Agmatine] (also called Peptide 20367) [P-20367 [N-Me-Tyr^1, D-Ala^2, Orn^12, Abu^15, Orn^21, Nle^27, Asp^28, Agm^29]hGHRH(1-29)NH2]",1.7 nM,2.56 JI-38 = 1,1.09 nM,2.51 JI-38 = 1,7.01 hGHRH(1-29)NH2 = 1
"[Desaminotyrosyl][dA]DAIFTNSYR[Orn]VL[Abu]QLSAR[Orn]LLQDI[Nle]DR-NHMe (SMILES CCCC[C@H](NC(=O)[C@@H](NC(=O)[C@H](CC(=O)O)NC(=O)[C@H](CCC(N)=O)NC(=O)[C@H](CC(C)C)NC(=O)[C@H](CC(C)C)NC(=O)[C@H](CCCN)NC(=O)[C@H](CCCNC(=N)N)NC(=O)[C@H](C)NC(=O)[C@H](CO)NC(=O)[C@H](CC(C)C)NC(=O)[C@H](CCC(N)=O)NC(=O)[C@H](CC)NC(=O)[C@H](CC(C)C)NC(=O)[C@@H](NC(=O)[C@H](CCCN)NC(=O)[C@H](CCCNC(=N)N)NC(=O)[C@H](Cc1ccc(O)cc1)NC(=O)[C@H](CO)NC(=O)[C@H](CC(N)=O)NC(=O)[C@@H](NC(=O)[C@H](Cc1ccccc1)NC(=O)[C@@H](NC(=O)[C@H](C)NC(=O)[C@H](CC(=O)O)NC(=O)[C@@H](C)NC(=O)CCc1ccc(O)cc1)[C@@H](C)CC)[C@@H](C)O)C(C)C)[C@@H](C)CC)C(=O)N[C@@H](CC(=O)O)C(=O)N[C@@H](CCCNC(=N)N)C(=O)NC) [P-27400 [Dat^1, D-Ala^2, Orn^12, Abu^15, Orn^21, Nle^27, Asp^28]hGHRH(1-29)NH-CH3]",3.35 nM,1.3 JI-38 = 1,,,
"[NMeY][dA]DAIFTQSYR[Orn]VL[Abu]QLSAR[Orn]LLQDI[Nle]DR[Ava]-NH2 (N-terminus assumed; SMILES CCCC[C@H](NC(=O)[C@@H](NC(=O)[C@H](CC(=O)O)NC(=O)[C@H](CCC(N)=O)NC(=O)[C@H](CC(C)C)NC(=O)[C@H](CC(C)C)NC(=O)[C@H](CCCN)NC(=O)[C@H](CCCNC(=N)N)NC(=O)[C@H](C)NC(=O)[C@H](CO)NC(=O)[C@H](CC(C)C)NC(=O)[C@H](CCC(N)=O)NC(=O)[C@H](CC)NC(=O)[C@H](CC(C)C)NC(=O)[C@@H](NC(=O)[C@H](CCCN)NC(=O)[C@H](CCCNC(=N)N)NC(=O)[C@H](Cc1ccc(O)cc1)NC(=O)[C@H](CO)NC(=O)[C@H](CCC(N)=O)NC(=O)[C@@H](NC(=O)[C@H](Cc1ccccc1)NC(=O)[C@@H](NC(=O)[C@H](C)NC(=O)[C@H](CC(=O)O)NC(=O)[C@@H](C)NC(=O)[C@H](Cc1ccc(O)cc1)NC)[C@@H](C)CC)[C@@H](C)O)C(C)C)[C@@H](C)CC)C(=O)N[C@@H](CC(=O)O)C(=O)N[C@@H](CCCNC(=N)N)C(=O)NCCCCC(N)=O, also called MR-326; Peptide 22326) [P-22326 [N-Me-Tyr^1, D-Ala^2, Gln^8, Orn^12, Abu^15, Orn^21, Nle^27, Asp^28, Apa^30]hGHRH(1-30)NH2]",0.71 nM,6.12 JI-38 = 1,0.98 nM,2.8 JI-38 = 1,7.81 hGHRH(1-29)NH2 = 1
"[NMeY][dA]DAI[Phe(F5)]TNSYR[Orn]VL[Abu]QLSAR[Orn]LLQDI[Nle]SR[GABA]-NHMe (also called Peptide 27414) [P-27414 [N-Me-Tyr^1, D-Ala^2, Fpa5^6, Orn^12, Abu^15, Orn^21, Nle^27, Gab^30]hGHRH(1-30)NH-CH3]",1.56 nM,2.79 JI-38 = 1,,,
"[NMeY][dA]DAIFTNSYR[Orn]VL[Abu]QLSAR[Orn]LLQDI[Nle]DR[Aoc]-NH2 (N-terminus assumed; SMILES CCCC[C@H](NC(=O)[C@@H](NC(=O)[C@H](CC(=O)O)NC(=O)[C@H](CCC(N)=O)NC(=O)[C@H](CC(C)C)NC(=O)[C@H](CC(C)C)NC(=O)[C@H](CCCN)NC(=O)[C@H](CCCNC(=N)N)NC(=O)[C@H](C)NC(=O)[C@H](CO)NC(=O)[C@H](CC(C)C)NC(=O)[C@H](CCC(N)=O)NC(=O)[C@H](CC)NC(=O)[C@H](CC(C)C)NC(=O)[C@@H](NC(=O)[C@H](CCCN)NC(=O)[C@H](CCCNC(=N)N)NC(=O)[C@H](Cc1ccc(O)cc1)NC(=O)[C@H](CO)NC(=O)[C@H](CC(N)=O)NC(=O)[C@@H](NC(=O)[C@H](Cc1ccccc1)NC(=O)[C@@H](NC(=O)[C@H](C)NC(=O)[C@H](CC(=O)O)NC(=O)[C@@H](C)NC(=O)[C@H](Cc1ccc(O)cc1)NC)[C@@H](C)CC)[C@@H](C)O)C(C)C)[C@@H](C)CC)C(=O)N[C@@H](CC(=O)O)C(=O)N[C@@H](CCCNC(=N)N)C(=O)NCCCCCCCC(N)=O, also called Peptide 21303) [P-21303 [N-Me-Tyr^1, D-Ala^2, Orn^12, Abu^15, Orn^21, Nle^27, Asp^28, Amc^30]hGHRH(1-30)NH2]",1.87 nM,2.32 JI-38 = 1,,,

# Next, values leading:
IC50 [1],Relative affinity (Binding potency) vs JI-38 [1],IC50 [2],Relative affinity (Binding potency) compared to JI-38 [2],Relative affinity (Binding potency) compared to hGHRH(1-29) [2],Binder
0.83 nM,5.24 JI-38 = 1,1.28 nM,2.14 JI-38 = 1,5.98 hGHRH(1-29)NH2 = 1,"[NMeY][dA]DAIFTTSYR[Orn]VL[Abu]QLSAR[Orn]LLQDI[Nle]DR-NHMe (also called MR-410; Peptide 27410) [P-27410 [N-Me-Tyr^1, D-Ala^2, Thr^8, Orn^12, Abu^15, Orn^21, Nle^27, Asp^28]hGHRH(1-29)NH-CH3]"
1.06 nM,4.1 JI-38 = 1,1.01 nM,2.71 JI-38 = 1,7.57 hGHRH(1-29)NH2 = 1,"[NMeY][dA]DAIFTNSYR[Orn]VL[Abu]QLSAR[Orn]LLQDI[Nle]DR-NHMe (also called MR-409; Peptide 27409) [P-27409 [N-Me-Tyr^1, D-Ala^2, Orn^12, Abu^15, Orn^21, Nle^27, Asp^28]hGHRH(1-29)NH-CH3]"
1.47 nM,2.96 JI-38 = 1,3.05 nM,0.9 JI-38 = 1,2.5 hGHRH(1-29)NH2 = 1,"[NMeY][dA]DAIFTNSYR[Orn]VL[Abu]QLSAR[Orn]LLQDI[Nle]DR-NHEt (also called MR-421; Peptide 28421) [P-28421 [N-Me-Tyr^1, D-Ala^2, Orn^12, Abu^15, Orn^21, Nle^27, Asp^28]hGHRH(1-29)NH-CH2-CH3]"
1.07 nM,4.07 JI-38 = 1,,,,"[NMeY][dA]DAIFTNSYR[Orn]VL[Abu]QLSAR[Orn]LLQDI[Nle]SR[GABA]-NH2 (N-terminus assumed; SMILES CCCC[C@H](NC(=O)[C@@H](NC(=O)[C@H](CC(=O)O)NC(=O)[C@H](CCC(N)=O)NC(=O)[C@H](CC(C)C)NC(=O)[C@H](CC(C)C)NC(=O)[C@H](CCCN)NC(=O)[C@H](CCCNC(=N)N)NC(=O)[C@H](C)NC(=O)[C@H](CO)NC(=O)[C@H](CC(C)C)NC(=O)[C@H](CCC(N)=O)NC(=O)[C@H](CC)NC(=O)[C@H](CC(C)C)NC(=O)[C@@H](NC(=O)[C@H](CCCN)NC(=O)[C@H](CCCNC(=N)N)NC(=O)[C@H](Cc1ccc(O)cc1)NC(=O)[C@H](CO)NC(=O)[C@H](CC(N)=O)NC(=O)[C@@H](NC(=O)[C@H](Cc1ccccc1)NC(=O)[C@@H](NC(=O)[C@H](C)NC(=O)[C@H](CC(=O)O)NC(=O)[C@@H](C)NC(=O)[C@H](Cc1ccc(O)cc1)NC)[C@@H](C)CC)[C@@H](C)O)C(C)C)[C@@H](C)CC)C(=O)N[C@@H](CO)C(=O)N[C@@H](CCCNC(=N)N)C(=O)NCCCC(N)=O, also called Peptide 25501) [P-25501 [N-Me-Tyr^1, D-Ala^2, Orn^12, Abu^15, Orn^21, Nle^27, Gab^30]hGHRH(1-30)NH2]"
